Measured values: patent publication US20220259593A1, “CONTROL OF MAMMALIAN GENE DOSAGE USING CRISPR” (The Regents of the University of California, priority 2019, published 2022)

B1: cr658 (nucleic acid)
guide: GTTTAAGAGCTAAGCTGGAAACAGCATAGCAAGTTTAAATAAGGATATTCCGTTATCAATTCGAAAGAATGGCACCGAGTCGGTGCT
modifications: listed as DNA, chemistry not fully specified
B2: cr917 (nucleic acid)
guide: GTTTAAGAGCTAAGCTGGAAACAGCATAGCAAGTTTAAATAAGGTTAATCCGTTATCAACTTGAAAAAGTGGCATCTAGTAGATGCT
modifications: listed as DNA, chemistry not fully specified
B3: cr645 (nucleic acid)
guide: GTTTAAGAGCTAAGCTGGAAACAGCATAGCAAGTTTAAATAAGCCTAGTGCGTTATCAACGTGAAAACGTGGCACGGAGTCCGTGCT
modifications: listed as DNA, chemistry not fully specified
B4: cr552 (nucleic acid)
guide: GTTTAAGAGCTAAGCTGGAAACAGCATAGCAAGTTTAAATAAGGCTAGTCCGATGGCAACTTGAAAAAGTGGCACCGAGTCGGTGCT
modifications: listed as DNA, chemistry not fully specified
B5: cr437 (nucleic acid)
guide: GTTTAAGAGCTAAGCTGGAAACAGCATAGCAAGTTTAAATAAGGCTAGTCCGTTATCAACGTGAAAACGTGGCACACAGTGTGTGCT
modifications: listed as DNA, chemistry not fully specified
B6: cr015 (nucleic acid)
guide: GTTTACGAGCTAAGCTGGAAACAGCATAGCAAGTTTAAATAAGGCTAGTCCGTTATCAACTTGAAAAAGTGGCACCGAGTCGGTGCT
modifications: listed as DNA, chemistry not fully specified
B7: cr596 (nucleic acid)
guide: GTTTAAGAGCTAAGCTGGAAACAGCATAGCAAGTTTAAATAAGGCTAGTCCGTTATCAACTTGAAAAAGTGGGACCGAGTCGGTGCT
modifications: listed as DNA, chemistry not fully specified
B8: cr501 (nucleic acid)
guide: GTTTAAGAGCTAAGCTGGAAACAGCATAGCAAGTTTAAATAAGGCTAGTCCGTTATCAACTTGAGAAAGTGTCACCGAGTCGGTGAT
modifications: listed as DNA, chemistry not fully specified
B9: cr725 (nucleic acid)
guide: GTTTAAGAGCTAAGCTGGAAACAGCATAGCAAATTTAAATAAGGCTAGTCCGTTATCAACTTGAAAAAGTGGCACCGAGTCGGTGCT
modifications: listed as DNA, chemistry not fully specified
B10: cr293 (nucleic acid)
guide: GTTTAAGAGCTAAGCTGGAAACAGCATAGCAAGTTTAAATAAGGCTAGTCCGTTATCAACTTGAAAAAGTGGGACCAAGTTGGTCCT
modifications: listed as DNA, chemistry not fully specified
B11: cr292 (nucleic acid)
guide: GTTTAAGAGCTAAGCTGGAAACAGCATAGCAAGTTTAAATAAGGCTAGTCCGTTATCAACTTGAAAAAGTCGCACCGAGTCGGTGCT
modifications: listed as DNA, chemistry not fully specified
B12: cr742 (nucleic acid)
guide: GTTTAAGAGCTAAGCTGGAAACAGCATAGCAAGTTTAAATAAGGATATTCCGTTATCAACTCGAAAGAGTGGCACCGAGTCGGTGCT
modifications: listed as DNA, chemistry not fully specified
B13: cr522 (nucleic acid)
guide: GTTTAAGAGCTAAGCTGGAAACAGCATTGCAAGTTTAAATAAGGCTAGTCCGTTGTCAACTTGAAAAAGTGGCACCGAGCCGGTGCT
modifications: listed as DNA, chemistry not fully specified
B14: cr635 (nucleic acid)
guide: GTTTAAGAGCTAAGCTGGAAACAGCATAGCAAGTTTAAATAAGGCTAGTCCGTTATCAACTTGAAAAAGTGGCACCGGGTCGGTGCT
modifications: listed as DNA, chemistry not fully specified
B15: cr607 (nucleic acid)
guide: GTTTAAGAGCTAAGCTGGAAACAGCATAGCAAGTTTAAATAAGGCTAGTCCGTTATCAACTTGAAAAAGTGGCACCGAACCGGTGCT
modifications: listed as DNA, chemistry not fully specified
B16: cr699 (nucleic acid)
guide: GTTTAAGAGCTAAGCTGGAAACAGCATAGCAAGTTTAAATAAGGGTACTCCGTTATCAACGCGAAAGCGTGGCACCGAGTCGGTGCT
modifications: listed as DNA, chemistry not fully specified
B17: cr840 (nucleic acid)
guide: GTTTAAGAGCTAAGCTGGAAACAGCATAGCAAGTTTAAATAAGGCTAGTCCGTTATCAACTTGAGAAAGTAGCACCGAGTCGGTGCT
modifications: listed as DNA, chemistry not fully specified
B18: cr622 (nucleic acid)
guide: GTTTAAGAGCTAAGCTGGAAACAGCATAGCAAGTTTAAATAAGGCTAGTCCGTTATCAGCTGGAAACAGCGGCACCGAGTCGGTGCT
modifications: listed as DNA, chemistry not fully specified
B19: cr539 (nucleic acid)
guide: GTTTAAGAGCTAAGCTGGAAACAGCATAGCAAGTTTAAATAAGTCTAGTACGTTATCAATTGGAAACAATGGCACCGAGTCGGTGCT
modifications: listed as DNA, chemistry not fully specified
B20: cr723 (nucleic acid)
guide: GTTTAAGAGCTAAGCTGGAAACAGCATAGCAAGTTTAAATAAGGCTAGTCCGTTATCAACCTGAAAAGGTGGCAGCGAGTCGCTGCT
modifications: listed as DNA, chemistry not fully specified
B21: cr667 (nucleic acid)
guide: GTTTAAGAGCTAAGCTGGAAACAGCATAGCAAGCTTAAATAAGGCTAGTCCGTTATCAACTCGAAAGAGTGGCACCGAGTCGGTGCT
modifications: listed as DNA, chemistry not fully specified
B22: cr815 (nucleic acid)
guide: GTTTAAGAGCTAAGCTGGAAACAGCATAGCAAGTTTAAATAAGGCTAGTCCGTTATCAACTTGAAAAAGTGGCACCGAGTCGATGCT
modifications: listed as DNA, chemistry not fully specified
B23: cr133 (nucleic acid)
guide: GTTTAAGAGCTAAGCTGGAAACAGCATAGCAAGTTTAAATAAGGCAAGCCCGTTATCAACTTGAAAAAGTGGCACCGAGTCGGTGCT
modifications: listed as DNA, chemistry not fully specified
B24: cr279 (nucleic acid)
guide: GTTTAAGAGCTAAGCTGGAAACAGCATAGCAAGTTTAAATAAGGCTAGTCCGTTATCAACTTGAAAAAGTGGCACCGAGCCGGTGCC
modifications: listed as DNA, chemistry not fully specified
B25: cr117 (nucleic acid)
guide: GTTTAAGAGCTAAGCTGGAAACAGCATAGCAAGTTTAAATAAGGCTAGTCCGTTATCAACTTGGAAAAGTGGCACCGGGTCGGTGCT
modifications: listed as DNA, chemistry not fully specified
B26: cr273 (nucleic acid)
guide: GTTTAAGAGCTAAGCTGGAAACAGCATAGCAAGTTTAAATAAGTCTAGTACGTTATCAACTTGAGAAAGTGGCACCGAGTCGGTGCT
modifications: listed as DNA, chemistry not fully specified
B27: cr734 (nucleic acid)
guide: GTTTAAGAGCTAAGCTGGAAACAGCATCGCAAGTTTAAATAAGGCTAGTCCGTTCTCAACTTGAAAAAGTCGCACCGAGTCGGTGCT
modifications: listed as DNA, chemistry not fully specified
B28: cr877 (nucleic acid)
guide: GTTTAAGAGCTAAGCTGGAAACAGCATAGCAAGTTTAAATAAGGCTAGTCCGTTATCAACCTGAAAAGGTGCCACGGAGTCCGTGGT
modifications: listed as DNA, chemistry not fully specified
B29: cr848 (nucleic acid)
guide: GTTTAAGAGCTAAGCTGGAAACAGCATAGCAAGTTTAAATAAGGCTAGTCCGTTATCAACTTGAGAAAGTGGCACCGGGTCGGTGCT
modifications: listed as DNA, chemistry not fully specified
B30: cr575 (nucleic acid)
guide: GTTTAAGAGCTAAGCTGGAAACAGCATAGCAAGTTTAAATAAGGCTAGTCCGTTATCAACTTGAAAAAGTGGCACGGAGTCGGTGCT
modifications: listed as DNA, chemistry not fully specified
B31: cr962 (nucleic acid)
guide: GTTTAAGAGCTAAGCTGGAAACAGCATAGCAAGTTTAAATAAGGCTAGTCCGTTATCAACTTGAAAAAGTGGGACCCAGTGGGTCCT
modifications: listed as DNA, chemistry not fully specified

What follows are molecules tested on K562 CRISPRi cells (assay: Constant region variant library pooled growth screen, K562). Settings: sgRNA constant region variants; activity relative to the original, un-modified constant region cr995.
Type: cell-based, human
Method in brief: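 Cells were selected with puromycin for 2 days and then kept in RPMI-1640 spinner cultures, with duplicates handled separately. Targeting sequences comprised 3 sgRNAs per essential gene for 10 genes plus six non-targeting controls. Activities were normalized against pairing with the unmodified scaffold.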
With B1 the Mean relative activity was 0.6883.
Molecule B2 has a Mean relative activity of 0.6521.
With B3 the Mean relative activity was 0.7179.
B4 showed a Mean relative activity of 0.6864.
Molecule B5 has a Mean relative activity of 0.6854.
Work on B6 yielded a Mean relative activity of 0.7022.
B7 was tested, and the Mean relative activity was 0.69.
Molecule B8 has a Mean relative activity of 1.052.
B9 showed a Mean relative activity of 0.7094.
For B10, the Mean relative activity was 1.052.
For B11, the Mean relative activity was 0.6902.
For B12, the Mean relative activity was 0.7141.
B13 gave a Mean relative activity of 0.7084.
B14 showed a Mean relative activity of 0.7174.
In the case of B15, the Mean relative activity is reported as 0.6847.
Work on B16 yielded a Mean relative activity of 0.6628.
B17 gave a Mean relative activity of 0.6688.
For B18, the Mean relative activity was 1.099.
Molecule B19 has a Mean relative activity of 0.7135.
B20 was tested, and the Mean relative activity was 1.054.
In the case of B21, the Mean relative activity is reported as 0.6533.
For B22, the Mean relative activity was 0.6583.
B23 showed a Mean relative activity of 0.6664.
In the case of B24, the Mean relative activity is reported as 0.6783.
B25 showed a Mean relative activity of 0.6966.
B26 showed a Mean relative activity of 0.6725.
In the case of B27, the Mean relative activity is reported as 0.6906.
B28 gave a Mean relative activity of 0.686.
B29 showed a Mean relative activity of 0.6714.
B30 gave a Mean relative activity of 0.6955.
With B31 the Mean relative activity was 0.6733.
